{"source": "the nanobody polyreactivity screen of Harvey et al. (2022)"}
{"assay": "yeast display, Sf9 membrane polyspecificity reagent, FACS + sequencing; frameworks hold sequencing errors", "summary_of_the_method": "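Synthetic nanobody libraries on Saccharomyces cerevisiae BJ5465 were galactose-induced for 36–48 hours, stained 1 hour at 4 °C with 10% biotinylated, detergent-solubilized Sf9 membrane reagent and enriched on streptavidin microbeads. FACS then separated cells into low and high (top ~1%) gates by anti-HA (expression) and streptavidin (reagent binding) fluorescence. Genes were colony-PCR amplified, MiSeq 2 × 250 sequenced and CDR-length filtered. A clone's polyreactivity label is that of its gate of origin.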"}
{"sequence": "QVQLVESGGGLVQAGGSLRLSCAASGINFNLYAMGWYRQAPGKERELVAAISRSGDSTNYADSVKGRFTISRDNAKNTVDLQMNSLKPEDTAVYYCAVGYRYLKWVDYWGQGTQVTVSS", "polyreactivity (PSR sort gate)": "high polyreactivity"}
{"sequence": "QVQLVESGGGLVQAGGSLRLSCAASGSTFSYNAMGWYRQAPGKERELVAAIRWGGGSTYYADSVKGRFTISCDNAKNTVYLQMNSLKPEDTAVYYCARYGYRRVGSRWAEFDYWGQGTQVTVSS", "polyreactivity (PSR sort gate)": "high polyreactivity"}
{"sequence": "QVQLEESGGGLVQAGGSLRLSCAASGRTFWDNARGWNRQAPGKERELVATITSGDSTNYAASVKGRFTISRDNAKNTVYLQMNSLKPEDTAVYYCARVIVFDAYEFDYWGQGTQVTVSS", "polyreactivity (PSR sort gate)": "low polyreactivity"}
{"sequence": "QVQLVESGGRLVQAGGSLRLSCAAAGSTIPKYAMGWYRQPPGKERELVAAITWRGGSTYYADSVKGRFTISRDNAKNTVYLQMNSLKPEDTAVDYCAAEPYYPSRMDYWGQGTQVTVSS", "polyreactivity (PSR sort gate)": "low polyreactivity"}
{"sequence": "QVQLVESGGGLVQAGGSLRLCCAASGLTFAYYDMGWYRQAPGKERELVAAITSGGTTNYADSVKGRFTISRDNAKNTVYLQMNSLKPEDNAVYYCATDSWYGSWKYDYWGQGTQVTLSS", "polyreactivity (PSR sort gate)": "low polyreactivity"}
{"sequence": "QVQLVESGGGLVQAGGSLRLSCAASGSTFLSNAMGWYRQAPGKERELVAAITIGGSTNYADSVKGRFTISRDNAKNTVYLQMNSLKPEDTAFYFCAADWYYDYAELTRDYDYWGQGTQVTVSS", "polyreactivity (PSR sort gate)": "low polyreactivity"}
{"sequence": "QVQLVESGGGLVQAGGSLRLSCAASGRIFYRNAMGWYRQAPGKERELVAAITWRGGSTYYADSVKGRFTISRDNAKNTVYLQMNSLKPEDTAVYYCNTRYGRIHWKANWPEYGYWGQGTQVTVSS", "polyreactivity (PSR sort gate)": "low polyreactivity"}
{"sequence": "QEQLQESGGGLVQACGSLRLSCAASGSISGSSTMGWYRQAPGKERELVASIAVGANTNYADSAKGRFTISRDNAKTTVYLQMNSLKPEDSAVYYCAADYWFGYGTYEYWGQGTQVTVSS", "polyreactivity (PSR sort gate)": "high polyreactivity"}
{"sequence": "QVQLVESGGGLVQAGGSLRLSCAASGSTFQYYAMGWYRQAPGKERELVASITWGGDNTDYADSVKGRFTISRDNAKNTVYLQMNSLKPEDTAVYYCNTVRSNKMDYWGQGTQVTVSS", "polyreactivity (PSR sort gate)": "high polyreactivity"}
{"sequence": "QVQLVESGGGLVQAGGSLRLSCAASGGTFRVYAMGWYRQAPVKERELVDAITWRGGRTYYADSVKGRFTISRDNAKNTDYFQMNSLKPEDPAVYYCAADRYGDLYDYWGQGTQVTVSS", "polyreactivity (PSR sort gate)": "high polyreactivity"}
{"sequence": "QVQLVESGGRLVQAGGSLRLSCAASGSIFYFNAMGWYRQAPGKERELVATISRRGGSTYYADSVKGRFTISRDNAKKTVYLQMNSLKPEDTAVYYCAADYYTLYPVYIKRYGYWGQGTQVTVSS", "polyreactivity (PSR sort gate)": "high polyreactivity"}
{"sequence": "QVQLVESAGGLLQAGGTLRLICAASGRIFTNYAMGWYRQAPGKERELVAAINWSGSRTFYADSVMGRFTISRDNAKYTVYLQLNSLKPEDTAVYSCAADALRKPKIALYDYWGQGTQVTVSS", "polyreactivity (PSR sort gate)": "high polyreactivity"}
{"sequence": "QVQLVESGGGLVQAGGSLRLSCAASARTLAHYTMGWYRQAPGKERELVAAITFSGGRTYYADSVKGRFTISRDTAKNTVYLQMNSLKPEDTAVYYCNADGYWVVPLDDSYEYWGQGTQVTVSS", "polyreactivity (PSR sort gate)": "low polyreactivity"}
{"sequence": "QVQLVESGGGLVQAGGSLRLSCADSGSIFRSYDMGRYSQAPGKERELVAGISYSGGSTYYADSVKRRFTISRDNAKNTVYLQMNSLKPEDTAVYYCNVDGGTYFFFVGAWGEYDYWGQGTQVTVSS", "polyreactivity (PSR sort gate)": "low polyreactivity"}
{"sequence": "QVHLVESGGGLVQAGGSLRLSCAASGRTFGWNVMGWYRQAPGTERELVAAISGSGGSTYYADSVKGRFTISRDNAKNTVYLQMNSLKPEDTAVYYCAALYGPGREYDYWGQGTQVTVSS", "polyreactivity (PSR sort gate)": "low polyreactivity"}
{"sequence": "QVQLVESGGGLVQAGGSLRLSCAASGSTFYIYAMGWYRQSPGKERELVAVITRGGSTYYADSVKGRFTISRDNAKNTVYLQMNSLKPEDTAVYYCAARYWNGTRDTYGSWGQGTQVTVSS", "polyreactivity (PSR sort gate)": "high polyreactivity"}
{"sequence": "QVQLVESGGGLVQAGGSLRLSCAASGSIFGENAMGWYRQAPGKERELVASITESGVTTYYADSVKGRFTISRDNAKNTVYLQMNSLKPEDTAVYYFWGQGTQVTVSS", "polyreactivity (PSR sort gate)": "low polyreactivity"}
{"sequence": "QVQIVESGGGLVQAGGSLRLRCAASGLTFYVYVMGWYRQAPGKEREFVAAISYDGDSTYYADSVKGRFTISRDNAKNTVFFQMNSLIAEDTAVYYCNADRYPYWGYDYWGQGTQVTVSS", "polyreactivity (PSR sort gate)": "low polyreactivity"}
{"sequence": "QVQLVESGGGLVQAGGSLRLSCAASGSIIGPYAMGWYRQAHGKERELVAAITFSGGSTYYADSVKGRFTISRDNSKNTVYLQMNSLKPEDTAVYYCAAEYWYYTGYDYWGQGTQVTVSS", "polyreactivity (PSR sort gate)": "high polyreactivity"}
{"sequence": "QDQLVESGGGLVQAGGSLRLSCAASGSTFSYNMGWYRQAPGKERELVARITRGGGSTYYADSVKGRFTISRDNAKNTVYLQMNSLKPEDTAVYYCAADRYFRYYYWGQGTQVTVSS", "polyreactivity (PSR sort gate)": "high polyreactivity"}
{"sequence": "QVQLVESGGGLVQAGGSLRLSCAASGRIFYRNAMGWYRQAPGKEREFVAAITFRSGGTYYADSVKGRFTISRDNAKNTVYLQMNSLKPEDTAVYYCATRYLGASRYGYWGQGTQVTVSS", "polyreactivity (PSR sort gate)": "high polyreactivity"}
{"sequence": "QVQLVESGGGLVQAGGSLRLSCAASGLTFDYYVMGWYRQAPGKERELVATISWSGDITYYADSVKGRFTISRDNAKNTVYLQMNSLKPEDTAVYYCAADYLDSTYGYVYGWDDYWGQGTQVTVSS", "polyreactivity (PSR sort gate)": "low polyreactivity"}
{"sequence": "QVQLVESGGGLVQAGGSLRLSCAASGRTSNFNAMGWYRQATGKERELVAAINSDGSTYYADSVKGRFTISRDNAKNTVYLQMNSLKPEDTAVDYCAVRKRPHGYLAFGYWGQGTQVTVSS", "polyreactivity (PSR sort gate)": "low polyreactivity"}
{"sequence": "QVQLVESGGGLVQAGGSLRLSCAASGSIFYGNAMGWYRQAPGKERELVAAISKRGGSTYYADSVKGRFTISRDNAKNTVYLQMNSLKPEDTAVYYCAKATAGHTEYYSWGQGTQVTVSS", "polyreactivity (PSR sort gate)": "high polyreactivity"}
{"sequence": "QVQLVESGGGLVQAGGSLRLSCAASGRIFQHNTMGWYRQAPGKERELVAAITRGGRTNYADSVKGRFTISRDNAKNTVYLQMNSLKPEDTAVYYCAARYVERHTDYYYWGQGTQVTVSS", "polyreactivity (PSR sort gate)": "low polyreactivity"}
{"sequence": "QVQLEVSGGGLVQAGGSLLLSCAASGFTFYFYAMGWSRQATGTERELVAAISRSGSRTYYADSVKGRFTISRDNAKNTVYLQMNSLKPEDTAVYYCARVRPRGLYFVLHYDYWGQGTHVTVSS", "polyreactivity (PSR sort gate)": "high polyreactivity"}
{"sequence": "QVQLVESGGGLVQAGGSLRLSCAASGSIFGRNTMGWYRQAPGKERELVAAIDSSGGSTYYADSVKGRFTISRDNAKNTVYLQMNSLKPEDTAVYYCAAESRYATKSGYGLVLYYYWGQGTQVTVSS", "polyreactivity (PSR sort gate)": "high polyreactivity"}
{"sequence": "QVQLVESGGGLVQAGGSLRLSCAASGRIFSPYAMGWYRQAPGKERELVAAITSSGGSTYYADSVKGRFTISRDNAKNTVYLQMNSLKPEDTAVYYCNARRGRYTPSVNYWGQGTQVTVSS", "polyreactivity (PSR sort gate)": "high polyreactivity"}
{"sequence": "QVQLVESGGGLVQAGGSLRLSCAASGITFSKYAMGWYRPAPGKERELVAAISSTASTNYADSVKGRFTISRDNAKHTVYFQMNSLKPEDTAVYYCNAGLFFQWFWTYDDYWGQGTQVTVSS", "polyreactivity (PSR sort gate)": "low polyreactivity"}
{"sequence": "QVQLVESGGGLVQAGGSLRLSCAASGRIFGINAMGWYRQAPGKERELVAAINWSGGSTYYADSVKGRFTISRDNAKNTVYIQMNSLKPEDSAVYYCAAQKYKRVGYWGQGTQVTVSS", "polyreactivity (PSR sort gate)": "high polyreactivity"}
{"sequence": "QVQLVESGGGLVQAGGSLRLSCAASGIIFARNGMGWYRPAPGKERELVAAISSGGRKYYADSVKGRFTISRDNAKNTVYLQMNSLKPEDTAVYYCNALGWYLRGDYWGQGTQVTVSS", "polyreactivity (PSR sort gate)": "high polyreactivity"}
{"sequence": "QVQLVESGGGLVQAGGSLRLSCAASGSTFGGYAMGWYRQAPGKERELVAAISGSGVRTYYADSEKGRFTISRDNAKNTVYLQMNSLQPEDTAVYYCAKRVRYPGDRYYYWGQGTQVTVSS", "polyreactivity (PSR sort gate)": "high polyreactivity"}
